We go through 20 sequences from the DeepSol protein solubility set.

This data set is described as follows: soluble on expression in E. coli; label from the status in PepcDB or PDB records.
With “MVQDQIRYDILVQDALRGVIRKVLSEVAKAGLPGSHHFFITFLTNAPGVKISTRLKSRYPEQMTIVLQHQFRDLNVSETAFEVTLSFREVSEKLVIPFHSIQVFYDPVAAFEAAFDLPSNLNSKEGENLENIASTPVILSDTQKKEKKFPKEQISKTNKDSSNNDTKQSADVVSLDSFRKK”, the “soluble on expression in E. coli” value is on record as “not soluble”.

On to “SWVWNQMFVLEEFSGPEPILVGRLHTDLDPGSKKIKYILSGDGAGTIFQINDITGDIHAIKRLDREEKAEYTLTAQAVDFETNKPLEPPSEFIIKVQDINDNAPEFLNGPYHATVPEMSILGTSVTNVTATDADDPVYGNSAKLVYSILEGQPYFSIEPETAIIKTALPNMDREAKEEYLVVIQAKDMGGHSGGLSGTTTLTVTLTDVNDNPPKFAQSLYHFSVPEDVVLGTAIGRVKANDQDIGENAQSSYDIIDGDGTALFEITSDAQAQDGVIRLRKPLDFETKKSYTLKVEAANIHIDPRFSSRGPFKDTATVKIVVE”, for which the “soluble on expression in E. coli” value was “soluble”.

For the sequence “MSLAKPKVIVPMVTPLRGGSVDKNAASWLASRLSESGVDGVFVPGTTGEWYLLDPHERAEAFFAVASSAIAGLRLVAGVSGYRPEESYRLAEEAAGHGAHAVMAVPPIYFRPSTDFLREFYGEIKRRAGGLPTYIYIFPERMGYTLAVEQVESLVEAGVVDGIKATVTDAAYIAGLAAVKERNPEFEVLAGGLEMLVHTSLSGGDGVVDAYSNVAPKLAVELAESLEKGSVERVAGLQGRVLKLSRILGKRSLPAVLKAVLHVLGAPITGEVRKPLKPLTQPEANATANALCTSYRDYLLPGEGHHHHHH”, the “soluble on expression in E. coli” value was “soluble”.

For the sequence “MEHRYRTNLKKVFLSDSELNQLNINIDQSGCKSFSEYARRTLLDPGMNFITIDTNGYQDLVFELKRIGNNINQIARSVNQSQLISGEELQELKKGIGELIKEVDKEFNLQAQKLKEFHGHH”, the “soluble on expression in E. coli” value was “not soluble”.

Regarding “RSRLVQFQKNTDEPMGITLKMNELNHCIVARIMHGGMIHRQGTLHVGDEIREINGISVANQTVEQLQKMLREMRGSITFKIVPSYREF”, the “soluble on expression in E. coli” value is on record as “soluble”.

Consider “MNDITASSSVILDSLLIDDSLITCEVCFEVFNHENRPPKLLPCGHNFCESCIFSLCLHQEYYLLDSIKCPTCRREFTTNTARQAPTNYDLCKILENLFRRKEQNVTVIEVPELVHNLPPPMAEVSSSATKIVTSQQQQQQQPAVATKMPRHHVSKKMKALAKRTEESKHFRCADCQRKISQKNLFRVSRYCVDCTSTSRMTIVCLECCVNHHNGHDLLTEDSLHHNQLKTLSDLRKLRHRILDSSDEFDRRADEIRTSGMDVCGGLSAEKHNLLTYTLASIDDVMRRIEMAPILFPPVLRTIRDEQSHNFSRLEKLSAQLEKSLVSRKNTKPTSLTFIENMNDTTYQGLQRSVQNQSLNKSTLSIRQSRVSLRTDDSLFHESISSLTRLMHQHPMCLQLEFHHSTVSSKDTVTQRKQKIMSCAHATTSMLDMDLTQVSMVPIFADVLLNCFYQLNRLSKNKFVGDKKYRRCDIWKQVQCSYTELFGITAKHFPSHHPERVDILDDLAYLCHLYSDVADQGTVTICLIEAARARASDSSGLTEIEQQRSEERLELIDEHLTECRRLQKLLELRKTSKTKKNGGLKRLFGGCFIAQEKANDSLVY”, for which the “soluble on expression in E. coli” value is listed as “not soluble”.

Turning to “PNIADKGSVFYHFSATSFDSVDGTRHYRVWTAVPNTTAPASGYPILYMLDGNAVMDRLDDELLKQLSEKTPPVIVAVGYQTNLPFDLNSRAYDYTPAAESRKTDLHSGRFSRKSGGSNNFRQLLETRIAPKVEQGLNIDRQRRGLWGHSYGGLFVLDSWLSSSYFRSYYSASPSLGRGYDALLSRVTAVEPLQFCTKHLAIMEGSATQGDNRETHAVGVLSKIHTTLTILKDKGVNAVFWDFPNLGHGPMFNASFRQALLDISGENANYTAGCHELSH”, the “soluble on expression in E. coli” value is on record as “soluble”.

As for “MVKSLQLAHQLKDKKILLIGGGEVGLTRLYKLIPTGCKLTLVSPDLHKSIIPKFGKFIQNEDQPDYREDAKRFINPNWDPTKNEIYEYIRSDFKDEYLDLEDENDAWYIIMTCIPDHPESARIYHLCKERFGKQQLVNVADKPDLCDFYFGANLEIGDRLQILISTNGLSPRFGALVRDEIRNLFTQMGDLALEDAVVKLGELRRGIRLLAPDDKDVKYRMDWARRCTDLFGIQHCHNIDVKRLLDLFKVMFQEQNCSLQFPPRERLLSEYCSS”, the “soluble on expression in E. coli” value is “not soluble”.

As for “MSLKKIIITGALGQIGTELVIKCRERYGTENVLATDIRKPEPHSPVKNGPFEILDVTDRNRLFETVRYFNADTLMHMAALLSATAEKKPLVAWDLNMGGLINTLEAARRYQLKYFTPSSIGAFGISTPKVNTPQLTIQQPTTMYGINKVTGELLCQYYYVKFGVDTRSVRFPGLISHVKEPGGGITDYAVDMYFKAVRKGHYTSYINRYTYMDMMYMEDAIDAIIKLMEEDSVKLKTRNGYNLSAMSIEPEMLKQAIQVYYPDFTLDYDIDLERQDIALSWPDSIDTSCAQEEWGFDPKYDLPTMTKVMLEAIEKKQKEEGHHHHHH”, the “soluble on expression in E. coli” value is on record as “soluble”.

In the case of “MSLTDLSMPKPPSVLPDKRQVAASFSRAAGSYESVAELQRSVGSELLSRLPAQFSPVRWLDLGSGTGYFSRALDQVFSGSEGIALDIAEGMLRHAQPLGGAQHFVAGDAEHLPLRDQSCGLIFSSLAVQWCADFAAVLREAHRVLQPSGVFAFASLCVGTLYELRDSWQAVDGQVHVNRFRHEDDYRQLCAASGLQVRSLDVCPQVLHYPDVRSLTHELKALGAHNLNPGRPSGLTGRERIKGMVQAYEAFRQEAGLPATYQVVYAVLEKAEGHHHHHH”, the “soluble on expression in E. coli” value is on record as “not soluble”.

Turning to “MNGVEGNNELSLANTTTPSHASEDLDLKQDQGLQEETDTVREMEAAGEAGADGGASPDSEHCGPELCFRVAENSCAAAARGLEDAPSPSKGGDAPSAPVAADDSSKNGCQLEGPHSPAKPKALEACGAVGLGSQQMPGPKKTKEMTTTKCAISVATGKEGEAGAAMQEKKGLQKEKKVAGGGKEETRPRAPKINCMDSLEAIDQELSNVNAQADRAFLQLERKFGRMRRLHMQRRSFIIQNIPGFWVTAFRNHPQLSPMISGQDEDMMRYMINLEVEELKQPRVGCKFKFIFQSNPYFRNEGLVKEYERRSSGRVVSLSTPIRWHRGQEPQAHIHRNREGNTIPSFFNWFSDHSLLEFDRIAEIIKGELWSNPLQYYLMGDGPRRGVRVPPRQPVESPRSFRFQSG”, the “soluble on expression in E. coli” value is “soluble”.

As to “MGSDKIHHHHHHGYQFTDVVKVPATPVKNQASTGTCWCFATTSFMESELLRMGKGTYDLSEMFIVRQKYMNQLQDNYVRQGRGNIGQGSLSHTFMNAFNQVGIVPEEVYSGINYDSDRHNHAEMVKYIKAIATTAVDMKKRSPEYYKLIDNLFDTYLGKLPEKFTYQGKEYTPKTFAASLGLNMDDYIELTSFTHHPYYQKFEVEVPDNWEHAQMYNLPLNEMMEVADYALNNGYTVCWDGDVSEKGFSFKNGVAINPEVKKVEDYSTTDRARFEKMDEKERLEEVYKFEKPFPEVNVTPQVRQEGFEAFVTTDDHLMHLTGIAKDQNGTKYYITKNSWGTERNTFGGYLNMSDSFVRAKTIYIMVHKDAIPKAIKSKLGI”, the “soluble on expression in E. coli” value is reported as “not soluble”.

As for “MVRIEVIDIEKPEGVEVIIGQGNFSIFTVDDLARALLTAVPGIKFGIAMNEAKPQLTRYTGNDPELEALAAKNAVKIGAGHVFVILMKNAYPINVLNTIKNHPAVAMIYGASENPFQVIVAETELGRAVIGVVDGKAANKIETDEQKKERRELVEKIGYKID”, the “soluble on expression in E. coli” value was “soluble”.

On to “MKKEEMDVVSLRIIKLYFLGIRELNFPDYNKRFQQKDMELFIQLADMMENLPNLDEQLIYELEELKDYLFYVKTEKYSLTVHDMFLEMKSELEKII”, for which the “soluble on expression in E. coli” value is “not soluble”.

For the sequence “MSLEQYFKRFLGEENAYFDEIHKRAYSYDATKKHYLPDGVLFPRNEEDIARILKFCNENNIIVIPRGSGSGFTGGALAVNGGVVLAFEKHMNKILEIDLENLVAVVQPGVINIHLQKEVAKYGLFYPPDPASMEYSSLGGNVSENAGGMRAAKYGITKDYVMALRAVLPSGEIIRAGKRTIKDVAGYNLAGILIASEGSLAVLSELTLKLIPLPKFKKTAFAIFPSVKSAMNAVYKSLASGVSPVSMEFLDNLSIRAVESKFNKGLPIEAGAILIADVDGNVKEAIDEDLRNLEHYFLEAGASEFKIAKDEQETADIWFARRNCSQSIAMYGTLKLNEDITVPRSKLPTLLEGIDEISKKYGFKIPCFGHTGDGNVHTNVMVPDKNDKEQVKKGYEAVEEIFKLTVKLGGTLSGEHGIGLSKAPFMNLAFSEAEMNLMRNIKKAFDPNNILNPFKMGLEGHHHHHH”, the “soluble on expression in E. coli” value is listed as “soluble”.

Consider “MADGEAVISTVNNVEEVHGQLFEVAPRYVNLSYIGEGAYGMVASALDTITRDRVAIKKISPFEHQTFCQRTLREIKILNRFKHENIINIQEIIRSETVDSLKDIYIVQCLMETDLYKLLKTQKLSNDHVCYFLYQILRGLKYIHSANVLHRDLKPSNLLLNTTCDLKICDFGLARVTDPQTDHTGFLTEYVATRWYRAPEIMLNSKGYTKSIDVWSVGCILAEMLSNRPLFPGKHYLDQLNLILAVVGSPSNADLQCIINDKARSYLISLPHKPKQPWARLYPGADPRALDLLDKMLTFNPHNRIDIEQALAHPYLEQYYDPGDEPVCEEPFTLEMEFDDLPKEKLKELIWEEAEAHHRRMEAEAAARNNGGQNPV”, for which the “soluble on expression in E. coli” value was “not soluble”.

Take “MVSLRTSNRGIVMIDAVVTWVDGADPAHHAKRLRHQGEAGVHQAATAPTRFAHSGEIRFCVLSLLRFCPFVERIHIVTDDQHPAVLDPILDDPHWRDRIAVVDHRAIYGEHADLLPVFSSRSIETMIHRIPGLAPRFIYLNDDIFVGRPLDESHFFDGDRAVLRGRMQPFPNPLVTRLKRWLKRERPGYKTAQQAAARLTGRTSDYFLTEHQPHPMHRDRLASFYAGDPQALRRQAGHRFRSADQVSPIGLANHLEIEARAVIAPPLDVGYIRPGRPTGTALARTMERLCANGYASFCVQSLDAMSEADRRCVLEGLERHYALEHHHHHH”: the “soluble on expression in E. coli” value is listed as “soluble”.

As for “KEKVKEPVKHLNSKNFDEFITKNKIVVVDFWAEWCAPCLILAPVIEELANDYPQVAFGKLNTEESQDIAMRYGIMSLPTIMFFKNGELVDQILGAVPREEIEVRLKSLLE”, the “soluble on expression in E. coli” value is “soluble”.

With “SPGRSSTSSGSTRYISFSGIESALSSLKNFQSCISSGMDTVSSVALDLVETQTEVSSEYSMDKAMVEFAKMDRELSHYVKAVQSTINHVKEERPEKVPDLKLLVEKKFLALQDKNSDADFKENEKFVQFKQQLRELKKQYGIHADRENDLTEGVDEDMIVTQSQTNFICPITQLEMKKPVKNKMCGHTYEEEAIVRMIESKHKRKKKACCPKIGCSHTDMRMSDLIPDEALRRAIESHNKKKKRHSE”, the “soluble on expression in E. coli” value is on record as “soluble”.

Consider “MTNPLNSTAANRSNQPSSDGISDGQITNEEAESLINKKNCSGHKLKEVTDSDTFSDNGKDDSDTKKRFHYHQDQRRMSLTSIVAVESPSSSNAPSRKTIDLGHGSDLIYIQRFLPFQQSWTFFDYLDKHIPWTRPTIRVFGRSCLQPRDTCYVASSGLTALVYSGYRPTSYSWDDFPPLKEILDAIYKVLPGSRFNSLLLNRYKGASDYVAWHADDEKIYGPTPEIASVSFGCERDFVLKKKKDEESSQGKTGDSGPAKKRLKRSSREDQQSLTLKHGSLLVMRGYTQRDWIHSVPKRAKAEGTRINLTFRLVL”, for which the “soluble on expression in E. coli” value was “not soluble”.
